Literature values, collected in paper PMC7101271.

Molecular target: Rab7 (UniProt P51149)
Chain of UniProt P51149 (P51149 2-207): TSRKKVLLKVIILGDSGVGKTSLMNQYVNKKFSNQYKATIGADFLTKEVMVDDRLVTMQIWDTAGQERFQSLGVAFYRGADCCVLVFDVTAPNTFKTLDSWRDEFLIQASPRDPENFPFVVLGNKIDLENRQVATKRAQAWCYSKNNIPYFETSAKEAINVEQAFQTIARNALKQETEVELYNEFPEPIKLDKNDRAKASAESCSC

Kd: > 50 µM
Substance: GDI (from UniProt P21856)
